These results are taken from patent US20190225669A1 (ACCELERON PHARMA, published 2019).

Sequences and labels used below:
T1: ActRIIB-Fc homodimer (UniProt Q13705 19-137)
T1 construct: extracellular domain; also called ActRIIB homodimer
T1 sequence (looked up): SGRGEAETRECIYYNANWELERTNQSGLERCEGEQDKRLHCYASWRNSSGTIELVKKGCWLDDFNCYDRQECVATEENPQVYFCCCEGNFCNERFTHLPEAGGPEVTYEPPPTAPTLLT

T2: TGFβ2 (human, UniProt P61812 303-414)
T2 construct: Human (PeproTech) is stated for the A549 reporter assay; also called TGF-beta2
T2 sequence (looked up): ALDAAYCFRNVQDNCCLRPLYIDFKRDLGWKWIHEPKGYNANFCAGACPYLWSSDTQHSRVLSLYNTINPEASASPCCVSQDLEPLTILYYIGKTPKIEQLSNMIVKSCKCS

T3: BMP15 (UniProt O95972 268-392)
T3 construct: also called GDF9b
T3 sequence (looked up): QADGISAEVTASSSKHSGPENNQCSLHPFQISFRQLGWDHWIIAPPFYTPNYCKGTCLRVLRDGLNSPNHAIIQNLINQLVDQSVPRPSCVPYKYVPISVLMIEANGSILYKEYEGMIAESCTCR

T4: BMP5 (UniProt P22003 317-454, limits assumed)
T4 sequence (looked up): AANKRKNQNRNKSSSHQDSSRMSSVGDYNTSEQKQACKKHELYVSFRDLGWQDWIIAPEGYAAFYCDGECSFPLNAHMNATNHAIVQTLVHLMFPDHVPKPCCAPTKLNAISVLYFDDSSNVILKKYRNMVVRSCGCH

T5: BMP7 (UniProt P18075 293-431)
T5 sequence (looked up): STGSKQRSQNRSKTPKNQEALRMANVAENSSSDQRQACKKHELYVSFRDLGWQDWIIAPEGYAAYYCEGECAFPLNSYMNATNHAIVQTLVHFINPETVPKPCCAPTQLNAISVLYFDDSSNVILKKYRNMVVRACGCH

T6: BMP6 (UniProt P22004 382-513, limits assumed)
T6 sequence (looked up): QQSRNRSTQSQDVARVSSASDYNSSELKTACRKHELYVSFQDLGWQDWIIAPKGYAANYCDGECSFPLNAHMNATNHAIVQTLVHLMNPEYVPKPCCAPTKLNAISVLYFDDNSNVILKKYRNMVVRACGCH

B1: BMP9 (ligand, UniProt Q9UK05 320-429, looked up)
chain: SAGAGSHCQKTSLRVNFEDIGWDSWIIAPKEYEAYECKGGCFFPLADDVTPTKHAIVQTLVHLKFPTKVGKACCVPTKLSPISVLYKDDMGVPTLKYHYEGMSVAECGCR
notes: also called GDF2
B2: TGFβRIISHORT-Fc homodimer (Fc fusion)
chain: TIPPHVQKSVNNDMIVTDNNGAVKFPQLCKFCDVRFSTCDNQKSCMSNCSITSICEKPQEVCVAVWRKNDENITLETVCHDPKLPYHDFILEDAASPKCIMKEKKKPGETFFMCSCSSDECNDNIIFSEEYNTSNPD
B3: BMPRII-Fc homodimer (Fc fusion, UniProt Q13873 27-150, looked up, not shown: a dimerising Fc or GST)
chain: SQNQERLCAFKDPYQQDLGIGESRISHENGTILCSKGSTCYGLWEKSKGDINLVKQGCWSHIGDPQECHYEECVVTTTPPSIQNGTYRFCCCSTDLCNVNFTENFPPPDTTPLSPPHSFNRDET
notes: extracellular domain
B4: activin A (ligand, UniProt P08476 311-426, looked up)
chain: GLECDGKVNICCKKQFFVSFKDIGWNDWIIAPSGYHANYCEGECPSHIAGTSGSSLSFHSTVINHYRMRGHSPFANLKSCCVPTKLRPMSMLYYDDGQNIIKKDIQNMIVEECGCS

In assay [1] the target is B3. Description: Biacore SPR. The procedure:
(§1) Ligands were injected and allowed to flow over the captured receptor protein.

Assay [2] has as its target T1, ActRIIB-Fc homodimer. The assay can be described thus: Biacore SPR. On the procedure:
as §1
For orientation: Surface plasmon resonance follows binding to a sensor surface in real time, without labels.

Assay [3] addresses T1, ActRIIB-Fc homodimer. The assay can be described thus: Biacore SPR. The procedure:
as §1
The source holds these as a separate data set.

The target of the next assay is T7, ALK3-Fc homodimer (UniProt P36894 24-152).
T7 construct: extracellular domain
The assay can be described thus: Biacore SPR. On the procedure: as §1

Assay [4] has as its target T1, ActRIIB-Fc homodimer. The assay can be described thus: Biacore SPR. The procedure: as §1
The source holds these as a separate data set.

Assay [5] deals with T1, ActRIIB-Fc homodimer. The assay can be described thus: Biacore SPR. The procedure:
as §1
The source holds these as a separate data set.

Assay [6] concerns the target T1, ActRIIB-Fc homodimer. The assay can be described thus: Biacore SPR. The procedure:
as §1
The source holds these as a separate data set.

Assay [7] concerns the target B3. The assay can be described thus: Biacore SPR. The procedure: (§2) A Biacore™-based binding assay was used to compare ligand binding selectivity of the BMPRII-Fc:ALK2-Fc heterodimeric complex described above with that of BMPRII-Fc and ALK2-Fc homodimeric complexes. […] Ligands were injected and allowed to flow over the captured receptor protein.
The source holds these as a separate data set.

Assay [8] deals with B3. Description: Biacore SPR. On the procedure: as §1
This is another data set of the same source.

For assay [9], the target named is B3. Description: Biacore SPR. On the procedure: as §1
This is another data set of the same source.

In the next assay the target is T8, ActRIIA-Fc homodimer (UniProt P27037 20-135).
T8 construct: extracellular domain
The assay can be described thus: Biacore SPR; kinetics indeterminate (transient). The procedure:
as §1

Assay [10] deals with T9, TGFβ1 (human, UniProt P01137 279-390).
T9 construct: Human (PeproTech) is stated for the A549 reporter assay; also called TGF-beta1
The assay can be described thus: Biacore SPR. On the procedure: (§3) A Biacore™-based binding assay was used to compare ligand binding selectivity of the TGFβRIISHORT-Fc:ALK1-Fc heterodimeric complex described above with that of TGFβRIISHORT-Fc and ALK1-Fc homodimeric complexes. […] Ligands were injected and allowed to flow over the captured receptor protein.

Assay [11] deals with T9, TGFβ1. The assay can be described thus: Biacore SPR. The procedure: (§4) The heteromeric or homomeric protein complexes were independently captured onto the system using an anti-Fc antibody. Ligands were injected and allowed to flow over the captured receptor protein.
The source holds these as a separate data set.

Assay [12] deals with T2, TGFβ2. Description: Biacore SPR. The procedure: as §4
For assay [13], the target named is T9, TGFβ1. Description: cell-based or functional assay.
The target of assay [14] is T2, TGFβ2. The assay can be described thus: cell-based or functional assay.
Assay [15] deals with T2, TGFβ2. The assay can be described thus: Biacore SPR; kinetics indeterminate (transient). The procedure: as §3
Assay [16] has as its target T3, BMP15. The assay can be described thus: Biacore SPR. On the procedure: as §1
In a further assay the target is T4, BMP5. Description: Biacore SPR. On the procedure: as §2
The target in assay [17] is T3, BMP15. The assay can be described thus: Biacore SPR. The procedure:
as §2
This is another data set of the same source.

Assay [18] has as its target T3, BMP15. Description: Biacore SPR. The procedure:
as §1
This is another data set of the same source.

Assay [19] addresses T3, BMP15. Description: Biacore SPR. On the procedure:
as §1
The source holds these as a separate data set.

Assay [20] deals with T5, BMP7. The assay can be described thus: Biacore SPR; kinetics indeterminate (transient). The procedure: as §2
The target of a further assay is T6, BMP6. Description: Biacore SPR; kinetics indeterminate (transient).
In assay [21] the target is T5, BMP7. Description: Biacore SPR; kinetics indeterminate (transient). The source holds these as a separate data set.
In assay [22] the target is B3. Description: Biacore SPR; kinetics indeterminate (transient). The procedure: as §1

Read-outs that look alike come from different tables or passages of the source.

T9 sequence (P01137 279-390 limits assumed): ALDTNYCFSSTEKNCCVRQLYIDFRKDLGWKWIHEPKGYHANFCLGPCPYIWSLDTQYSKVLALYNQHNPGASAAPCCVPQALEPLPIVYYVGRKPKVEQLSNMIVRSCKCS
T7 sequence (P36894 24-152): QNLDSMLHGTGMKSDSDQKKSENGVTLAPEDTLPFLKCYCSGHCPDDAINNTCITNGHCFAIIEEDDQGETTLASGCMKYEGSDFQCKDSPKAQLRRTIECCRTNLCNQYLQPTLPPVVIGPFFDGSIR
T8 sequence (P27037 20-135): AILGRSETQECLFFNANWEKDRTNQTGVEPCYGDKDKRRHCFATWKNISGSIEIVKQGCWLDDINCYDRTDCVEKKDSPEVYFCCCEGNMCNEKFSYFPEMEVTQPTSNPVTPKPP

Usually Kd stands for the concentration at which binding is half-saturated. Lower therefore signals tighter binding. Broadly, the koff is the first-order rate constant of dissociation. Low values mean slow dissociation, high ones fast dissociation. One may read the kon as the rate constant with which the complex forms. The low end stands for slower complex formation, the high end for faster complex formation. For B1, the Kd is 2.1 nM in the assay with BMPRII-Fc homodimer [1]; 0.077 nM with ActRIIB-Fc homodimer [2]; 0.034 nM with ActRIIB-Fc homodimer [3]; 0.01 nM with ActRIIB-Fc homodimer [4]; 0.034 nM with ActRIIB-Fc homodimer [5]; 0.034 nM with ActRIIB-Fc homodimer [6]. Also, the dissociation constant (Kd) was 1.6 nM with BMPRII-Fc homodimer [7], 2.1 nM with BMPRII-Fc homodimer [8], 2.1 nM with BMPRII-Fc homodimer [9] and over 10 nM with ActRIIA-Fc homodimer. Besides, the koff is 0.026 s⁻¹ in the assay with BMPRII-Fc homodimer [1]; 0.0011 s⁻¹ with ActRIIB-Fc homodimer [2]; 0.0013 s⁻¹ with ActRIIB-Fc homodimer [3]; 0.0012 s⁻¹ with ActRIIB-Fc homodimer [4]; 0.0013 s⁻¹ with ActRIIB-Fc homodimer [5]; 0.0013 s⁻¹ with ActRIIB-Fc homodimer [6]. Further, the values for the koff in the assay with BMPRII-Fc homodimer [7], with BMPRII-Fc homodimer [8] and in the assay with BMPRII-Fc homodimer [9] were 0.073 s⁻¹, 0.026 s⁻¹ and 0.026 s⁻¹, respectively. Also, the on-rate constant (kon) with BMPRII-Fc homodimer [1] came out at 1.2e+07 M⁻¹ s⁻¹; with ActRIIB-Fc homodimer [2] it was 1.4e+07 M⁻¹ s⁻¹; with ActRIIB-Fc homodimer [3], 3.9e+07 M⁻¹ s⁻¹; with ActRIIB-Fc homodimer [4], 1.2e+08 M⁻¹ s⁻¹; in the assay with ActRIIB-Fc homodimer [5], 3.9e+07 M⁻¹ s⁻¹; in the assay with ActRIIB-Fc homodimer [6], 3.9e+07 M⁻¹ s⁻¹. Further, the kon in the assay with BMPRII-Fc homodimer [7] came out at 4.5e+07 M⁻¹ s⁻¹; with BMPRII-Fc homodimer [8], 1.2e+07 M⁻¹ s⁻¹; with BMPRII-Fc homodimer [9], 1.2e+07 M⁻¹ s⁻¹. In the assay with ALK3-Fc homodimer, the binding result is “no binding”.

Turning to B2, the Kd with TGFβ1 [10] is 0.025 nM; with TGFβ1 [11], 0.02 nM; in the assay with TGFβ2 [12], 11 nM; in the assay with TGFβ2 [15], over 44 nM. In addition, the “IC50 (pM), CAGA12-luciferase reporter gene assay in A549 cells, TGFβ1 at 640 pg/mL” value with TGFβ1 [13] is 90 pM. Further, the “IC50 (pM), CAGA12-luciferase reporter gene assay in A549 cells, TGFβ2 at 480 pg/mL” value in the assay with TGFβ2 [14] is over 10000 pM.

Turning to B3, the Kd is 0.29 nM with BMP15 [16]; 9.9 nM with BMP5; 0.72 nM with BMP15 [17]; 0.29 nM with BMP15 [18]; 0.29 nM in the assay with BMP15 [19]; over 93 nM in the assay with BMP7 [20]. The Kd with BMP6 is over 8.9 nM; in the assay with BMP7 [21], over 38 nM. The koff amounted to 0.0028 s⁻¹ in the assay with BMP15 [16]; 0.019 s⁻¹ in the assay with BMP5; 0.0042 s⁻¹ with BMP15 [17]; 0.0028 s⁻¹ with BMP15 [18]; 0.0028 s⁻¹ with BMP15 [19]. In addition, the on-rate constant (kon) stood at 9.9e+06 M⁻¹ s⁻¹ with BMP15 [16]; 1.9e+06 M⁻¹ s⁻¹ with BMP5; 5.8e+06 M⁻¹ s⁻¹ in the assay with BMP15 [17]; 9.9e+06 M⁻¹ s⁻¹ in the assay with BMP15 [18]; 9.9e+06 M⁻¹ s⁻¹ with BMP15 [19].

As for B4, the Kd in the assay with ActRIIB-Fc homodimer [2] is 0.019 nM; in the assay with ActRIIB-Fc homodimer [3], 0.011 nM; with ActRIIB-Fc homodimer [4] it was 0.011 nM; in the assay with ActRIIB-Fc homodimer [5], 0.015 nM; with ActRIIB-Fc homodimer [6], 0.019 nM; in the assay with BMPRII-Fc homodimer [22], over 43 nM. Further, the koff amounted to 0.00023 s⁻¹ with ActRIIB-Fc homodimer [2]; 0.00014 s⁻¹ with ActRIIB-Fc homodimer [3]; 0.00014 s⁻¹ in the assay with ActRIIB-Fc homodimer [4]; 0.00017 s⁻¹ with ActRIIB-Fc homodimer [5]; 0.00023 s⁻¹ in the assay with ActRIIB-Fc homodimer [6]. In addition, the kon with ActRIIB-Fc homodimer [2] is 1.2e+07 M⁻¹ s⁻¹; with ActRIIB-Fc homodimer [3], 1.3e+07 M⁻¹ s⁻¹; with ActRIIB-Fc homodimer [4], 1.3e+07 M⁻¹ s⁻¹; with ActRIIB-Fc homodimer [5], 1.2e+07 M⁻¹ s⁻¹; with ActRIIB-Fc homodimer [6] it was 1.2e+07 M⁻¹ s⁻¹. The binding result in the assay with ALK3-Fc homodimer is given as “no binding”.
